Test results as given in publication PMC6451099 (Nucleic Acids Research, 2019).

B1: His-HSF1 (purified) (natural protein, human, UniProt Q00613 1-529, looked up)
chain: MDLPVGPGAAGPSNVPAFLTKLWTLVSDPDTDALICWSPSGNSFHVFDQGQFAKEVLPKYFKHNNMASFVRQLNMYGFRKVVHIEQGGLVKPERDDTEFQHPCFLRGQEQLLENIKRKVTSVSTLKSEDIKIRQDSVTKLLTDVQLMKGKQECMDSKLLAMKHENEALWREVASLRQKHAQQQKVVNKLIQFLISLVQSNRILGVKRKIPLMLNDSGSAHSMPKYSRQFSLEHVHGSGPYSAPSPAYSSSSLYAPDAVASSGPIISDITELAPASPMASPGGSIDERPLSSSPLVRVKEEPPSPPQSPRVEEASPGRPSSVDTLLSPTALIDSILRESEPAPASVTALTDARGHTDTEGRPPSPPPTSTPEKCLSVACLDKNELSDHLDAMDSNLDNLQTMLSSHGFSVDTSALLDLFSPSVTVPDMSLPDLDSSLASIQELLSPQEPPRPPEAENSSPDSGKQLVHYTAQPLFLLDPGSVDTGSNDLPVLFELGEGSYFSEGDGFAEDPTISLLTGSEPPKAKDPTVS
B2: GST-eEF1BδL fragment of residues 181–367 (domain or fragment, human, UniProt P29692-2 181-367, looked up)
chain: SQALLLAPDGSRRQGTPNTGQQVAVPDLAHQPSPPVNGQPPLGSLQALVREVWLEKPRYDAAERGFYEALFDGHPPGKVRLQERAGLAEGARRGRRDRRGRNILGNKRAGLRRADGEAPSALPYCYFLQKDAEAPWLSKPAYDSAECRHHAAEALRVAWCLEAASLSHRPGPRSGLSVSSLRPNRKM
B3: FLAG-eEF1BδL (purified) (natural protein)
chain: MRSGKASCTLETVWEDKHKYEEAERRFYEHEATQAAASAQQLPAEGPAMNGPGQDDPEDADEAEAPDGGSRRDPRKSQDSRKPLQKKRKRSPKSGLGPADLALLGLSAERVWLDKSLFDQAESSYRQKLADVAAQAAWPPALAPWGLCTHGNQVACHHVTWGIWVNKSSFDQAERAFVEWSQALLLAPDGSRRQGTPNTGQQVAVPDLAHQPSPPVNGQPPLGSLQALVREVWLEKPRYDAAERGFYEALFDGHPPGKVRLQERAGLAEGARRGRRDRRGRNILGNKRAGLRRADGEAPSALPYCYFLQKDAEAPWLSKPAYDSAECRHHAAEALRVAWCLEAASLSHRPGPRSGLSVSSLRPNRKMATNFLAHEKIWFDKFKYDDAERRFYEQMNGPVAGASRQENGASVILRDIARARENIQKSLAGSSGPGASSGTSGDHGELVVRIASLEVENQSLRGVVQELQQAISKLEARLNVLEKSSPGHRATAPQTQHVSPMRQVEPPAKKPATPAEDDEDDDIDLFGSDNEEEDKEAAQLREERLRQYAEKKAKKPALVAKSSILLDVKPWDDETDMAQLEACVRSIQLDGLVWGASKLVPVGYGIRKLQIQCVVEDDKVGTDLLEEEITKFEEHVQSVDIAAFNKI

How the values were obtained:
Test in all cases: pull-down
FLAG-eEF1BδL (purified) = target: B3
His-HSF1 (purified) = target: B1
GST-RNF20/FLAG-RNF40 = GST-RNF20/FLAG-RNF40 (human, UniProt Q5VTR2 1-975; O75150 1-1001)
Sequence of GST-RNF20/FLAG-RNF40 (Q5VTR2 whole entry, chain 1 of 2): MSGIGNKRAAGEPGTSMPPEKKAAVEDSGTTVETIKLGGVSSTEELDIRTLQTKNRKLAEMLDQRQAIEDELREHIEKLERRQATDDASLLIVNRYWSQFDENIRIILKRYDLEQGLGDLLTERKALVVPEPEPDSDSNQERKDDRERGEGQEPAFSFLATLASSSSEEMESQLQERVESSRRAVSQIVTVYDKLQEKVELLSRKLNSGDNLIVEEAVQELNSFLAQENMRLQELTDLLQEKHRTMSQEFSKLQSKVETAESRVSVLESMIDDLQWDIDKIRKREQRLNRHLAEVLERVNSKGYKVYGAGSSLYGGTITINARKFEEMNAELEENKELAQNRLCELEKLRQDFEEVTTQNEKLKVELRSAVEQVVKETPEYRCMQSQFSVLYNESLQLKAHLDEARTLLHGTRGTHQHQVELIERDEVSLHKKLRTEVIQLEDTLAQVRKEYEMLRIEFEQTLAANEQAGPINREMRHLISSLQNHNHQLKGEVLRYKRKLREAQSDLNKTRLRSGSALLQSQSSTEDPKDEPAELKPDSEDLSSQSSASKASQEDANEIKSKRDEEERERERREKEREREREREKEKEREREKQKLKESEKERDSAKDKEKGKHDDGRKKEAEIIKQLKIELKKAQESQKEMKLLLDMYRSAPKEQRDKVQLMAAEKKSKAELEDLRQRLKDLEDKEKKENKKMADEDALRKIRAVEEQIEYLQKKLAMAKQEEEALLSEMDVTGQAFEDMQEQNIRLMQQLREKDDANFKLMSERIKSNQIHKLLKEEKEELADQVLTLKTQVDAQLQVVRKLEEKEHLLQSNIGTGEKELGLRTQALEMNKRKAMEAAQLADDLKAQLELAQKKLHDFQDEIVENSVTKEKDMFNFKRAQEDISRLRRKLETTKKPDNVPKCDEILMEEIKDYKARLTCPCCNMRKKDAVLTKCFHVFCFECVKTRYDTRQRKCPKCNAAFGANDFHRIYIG
Sequence of GST-RNF20/FLAG-RNF40 (O75150 whole entry, chain 2 of 2): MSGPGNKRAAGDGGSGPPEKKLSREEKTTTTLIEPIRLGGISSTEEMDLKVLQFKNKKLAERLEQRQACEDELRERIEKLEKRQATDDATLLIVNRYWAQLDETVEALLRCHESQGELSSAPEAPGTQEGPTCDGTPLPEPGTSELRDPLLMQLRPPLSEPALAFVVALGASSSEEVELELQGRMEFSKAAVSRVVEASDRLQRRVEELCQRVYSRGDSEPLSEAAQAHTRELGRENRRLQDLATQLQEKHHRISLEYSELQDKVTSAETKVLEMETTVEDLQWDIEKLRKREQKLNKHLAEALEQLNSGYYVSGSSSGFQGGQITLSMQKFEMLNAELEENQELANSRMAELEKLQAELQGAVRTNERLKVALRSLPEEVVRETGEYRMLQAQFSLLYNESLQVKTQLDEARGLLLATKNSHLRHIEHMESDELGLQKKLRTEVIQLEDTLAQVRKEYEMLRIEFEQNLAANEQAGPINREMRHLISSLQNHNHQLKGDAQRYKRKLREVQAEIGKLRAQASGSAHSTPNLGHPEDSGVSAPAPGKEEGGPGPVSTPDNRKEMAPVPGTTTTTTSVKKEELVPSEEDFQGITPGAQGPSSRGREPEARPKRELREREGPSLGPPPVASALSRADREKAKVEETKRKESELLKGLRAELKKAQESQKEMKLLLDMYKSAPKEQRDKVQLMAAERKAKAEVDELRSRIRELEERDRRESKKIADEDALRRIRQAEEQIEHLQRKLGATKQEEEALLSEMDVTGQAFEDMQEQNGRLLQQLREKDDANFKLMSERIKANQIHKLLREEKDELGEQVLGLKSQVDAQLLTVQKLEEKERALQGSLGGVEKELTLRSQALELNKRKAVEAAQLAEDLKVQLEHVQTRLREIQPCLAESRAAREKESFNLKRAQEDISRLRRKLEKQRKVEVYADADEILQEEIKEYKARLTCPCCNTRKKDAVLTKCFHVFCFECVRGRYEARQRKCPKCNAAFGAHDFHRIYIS

Q: Does B1 bind (FLAG-eEF1BδL (purified))?
A: Result: binds

Q: Does B2 bind (His-HSF1 (purified))?
A: Result: binds

Q: Does B3 bind (GST-RNF20/FLAG-RNF40)?
A: Result: binds
